Measurements taken from PMC8352653 (Cell Reports, 2021).

target: variant of S6P_(ecto) protein containing a C-terminal Twin-Strep-tag (SARS-CoV-2, Wuhan-Hu-1 (assumed), UniProt P0DTC2, stabilised); assay: negative stain electron microscopy

Binder | binding result
C126 Fab (Fab, V domains shown) VH: QVQLQESGPGLVKPSETLSLSCAVSGGSIGSYFWSWIRQPPGKGLEWIGYLHYSGSTNYNPSLKSRVTISVDTSKNQFSLKLSSVTAADTAVYYCARLQWLRGAFDIWGQGTMVTVSS VL: NFMLTQPHSVSESPGKTVTISCTGSSGSIASNYVQWYQQRPGSAPTTVINEDNQRPSGVPDRFSGSIDSSSNSASLTISGLKTEDEADYYCQSYDSSNLVFGGGTKLTVL | binds
COV2-2531 Fab (Fab, V domains shown) VH: QVQLQESGPGLVKPSETLSLTCSVSGGSIRSYFWNWVRQPPGKGLEWIGYIYYSGSTNYKPSFKSRVTISLDTSKNQISLKLSSVTAADTAVYYCARATWLRDAFGIWGQGTMVTVSS VL: NFMLTQPHSVSESPGKTVTISCTGNSGSIASNYVQWYQQRPGSAPTTVIYEDSQRPSGVPDRFSGSIDSSSNSASLTISGLKTEDEADYYCQSFDSGNVVFGGGTKLTVL | binds

target: full-length SARS-CoV-2 S protein expressed in HEK293T cells (SARS-CoV-2, Wuhan-Hu-1, UniProt P0DTC2); assay: flow cytometry on cells

Binder | binding result
COV2-2002 (antibody, V domains shown) VH: EVQLVESGGGLVQPGGSLRLSCAASGFTFSFYWMSWVRQAPGKGLEWVANIKQDGSEKYYVDSVKGRSTISRDNAKNSLYLQMNSLRAEDTAVYYCARVGSSSWYFDYWGQGTLVTVSS VL: not shown | binds
COV2-2333 (antibody, V domains shown) VH: EVQLVESGGGLVQPGGSLRLSCAASGFTFSIYWMSWVRQAPGKGLQWVANIKQDASEKYYVDSVKGRFTISRDNAKNSLYLQMNSLRAEDTAVYYCARLGGSSWHFDYWGQGTLVTVSS VL: SYELTQPPSVSVSPGQTASITCSGDKLGDKYSSWYQQKPGQSPVLVIYEDTKRPSGIPERFSGSNSGNTATLTISGTQAMDEADYYCQAWSSSTAVFGGGTKLTVL | binds
COV2-2531 (antibody, V domains shown) VH: QVQLQESGPGLVKPSETLSLTCSVSGGSIRSYFWNWVRQPPGKGLEWIGYIYYSGSTNYKPSFKSRVTISLDTSKNQISLKLSSVTAADTAVYYCARATWLRDAFGIWGQGTMVTVSS VL: NFMLTQPHSVSESPGKTVTISCTGNSGSIASNYVQWYQQRPGSAPTTVIYEDSQRPSGVPDRFSGSIDSSSNSASLTISGLKTEDEADYYCQSFDSGNVVFGGGTKLTVL | binds
C126 (antibody, V domains shown) VH: QVQLQESGPGLVKPSETLSLSCAVSGGSIGSYFWSWIRQPPGKGLEWIGYLHYSGSTNYNPSLKSRVTISVDTSKNQFSLKLSSVTAADTAVYYCARLQWLRGAFDIWGQGTMVTVSS VL: NFMLTQPHSVSESPGKTVTISCTGSSGSIASNYVQWYQQRPGSAPTTVINEDNQRPSGVPDRFSGSIDSSSNSASLTISGLKTEDEADYYCQSYDSSNLVFGGGTKLTVL | binds
CnC2t1p1_B10 (antibody, V domains shown) VH: QVQLVQSGAEVKKPGSSVKVSCKASGGTFSSYAISWVRQAPGQGLEWMGGIIPIFGTANYAQKFQGRVTITADKSTSTAYMELSSLRSEDTAVYYCARVSGYDSSGYWGDYWGQGTLVTVSS VL: EIVLTQSPATLSLSPGERATLSCRASQSVSSYLAWYQQKPGQAPRLLIYDASNRATGIPARFSGSGSGTDFTLTISSLEPEDFAVYYCQQRSNWPPALTFGGGTKVEIK | binds
